Patent publication US12655198B2

Target: alcohol dehydrogenase (ADH)

- ADH aggregation (optical density at 360 nm, 48° C., 2 h) (% decrease in ADH aggregation): 61
B1: CryS96 (αB-crystallin peptide fused with ELP S96) (protein)
chain: GDRFSVNLDVKHFSPEELKVKGVPGSGVPGSGVPGSGVPGSGVPGSGVPGSGVPGSGVPGSGVPGSGVPGSGVPGSGVPGSGVPGSGVPGSGVPGSGVPGSGVPGSGVPGSGVPGSGVPGSGVPGSGVPGSGVPGSGVPGSGVPGSGVPGSGVPGSGVPGSGVPGSGVPGSGVPGSGVPGSGVPGSGVPGSGVPGSGVPGSGVPGSGVPGSGVPGSGVPGSGVPGSGVPGSGVPGSGVPGSGVPGSGVPGSGVPGSGVPGSGVPGSGVPGSGVPGSGVPGSGVPGSGVPGSGVPGSGVPGSGVPGSGVPGSGVPGSGVPGSGVPGSGVPGSGVPGSGVPGSGVPGSGVPGSGVPGSGVPGSGVPGSGVPGSGVPGSGVPGSGVPGSGVPGSGVPGSGVPGSGVPGSGVPGSGVPGSGVPGSGVPGSGVPGSGVPGSGVPGSGVPGSGVPGSGVPGSGVPGSGVPGSGVPGSGVPGSGVPGSGVPGSGVPGSGVPGSGVPGSGY
